Source: article PMC2693498, “The triple combination of tenofovir, emtricitabine and efavirenz shows synergistic anti-HIV-1 activity in vitro: a mechanism of action study”

Legend:
[1] = target: T1, HIV-1 reverse transcriptase p66/p51, wild-type (HIV-1, UniProt P04585;P04585 588-1147;588-1027); assay: EMSA; EFV titrated (ligand Kd); Bmax 11.2%; DEC binding buffer not in the material; 6% non-denaturing PAGE; DEC defined as resistant to excess competitor template; primer/template annealed 1:1.3 in 50 mM; settings: protein: recombinant; tags: N-terminal 6-His; copies: 1;1; label: 5'-32P primer; template 5' overhang 24 nt, other end blunt
[2] = target: T1, HIV-1 reverse transcriptase p66/p51, …; assay: EMSA; dCTP titrated (ligand Kd); Bmax 55.8%; DEC binding buffer not in the material; 6% non-denaturing PAGE; DEC defined as resistant to excess competitor template; primer/template annealed 1:1.3 in 50 mM; settings: protein: recombinant; tags: N-terminal 6-His; copies: 1;1; label: 5'-32P primer; template 5' overhang 24 nt, other end blunt
[3] = target: T1, HIV-1 reverse transcriptase p66/p51, …; assay: EMSA; FTC-TP titrated (ligand Kd); Bmax 60.2%; DEC binding buffer not in the material; 6% non-denaturing PAGE; DEC defined as resistant to excess competitor template; primer/template annealed 1:1.3 in 50 mM; settings: protein: recombinant; tags: N-terminal 6-His; copies: 1;1; label: 5'-32P primer; template 5' overhang 24 nt, other end blunt
[4] = target: T1, HIV-1 reverse transcriptase p66/p51, …; assay: EMSA; EFV titrated (ligand Kd); Bmax 3.96%; DEC binding buffer not in the material; 6% non-denaturing PAGE; DEC defined as resistant to excess competitor template; primer/template annealed 1:1.3 in 50 mM; settings: protein: recombinant; tags: N-terminal 6-His; copies: 1;1; label: 5'-32P primer; template 5' overhang 23 nt, other end blunt
[5] = target: T1, HIV-1 reverse transcriptase p66/p51, …; assay: EMSA; dATP titrated (ligand Kd); Bmax 60%; DEC binding buffer not in the material; 6% non-denaturing PAGE; DEC defined as resistant to excess competitor template; primer/template annealed 1:1.3 in 50 mM; settings: protein: recombinant; tags: N-terminal 6-His; copies: 1;1; label: 5'-32P primer; template 5' overhang 23 nt, other end blunt
[6] = target: T1, HIV-1 reverse transcriptase p66/p51, …; assay: EMSA; EFV titrated (ligand Kd); Bmax 10.6%; DEC binding buffer not in the material; 6% non-denaturing PAGE; DEC defined as resistant to excess competitor template; primer/template annealed 1:1.3 in 50 mM; settings: protein: recombinant; tags: N-terminal 6-His; copies: 1;1; label: 5'-32P primer; template 5' overhang 23 nt, other end blunt
[7] = target: T1, HIV-1 reverse transcriptase p66/p51, …; assay: EMSA; TFV-DP titrated (ligand Kd); Bmax 55%; DEC binding buffer not in the material; 6% non-denaturing PAGE; DEC defined as resistant to excess competitor template; primer/template annealed 1:1.3 in 50 mM; settings: protein: recombinant; tags: N-terminal 6-His; copies: 1;1; label: 5'-32P primer; template 5' overhang 23 nt, other end blunt
[8] = target: T1, HIV-1 reverse transcriptase p66/p51, …; assay: EMSA; EFV titrated (ligand Kd); Bmax 44.4%; DEC binding buffer not in the material; 6% non-denaturing PAGE; DEC defined as resistant to excess competitor template; primer/template annealed 1:1.3 in 50 mM; settings: protein: recombinant; tags: N-terminal 6-His; copies: 1;1; label: 5'-32P primer; template 5' overhang 24 nt, other end blunt
[9] = target: T1, HIV-1 reverse transcriptase p66/p51, …; assay: EMSA; dCTP titrated (ligand Kd); Bmax 50.0%; DEC binding buffer not in the material; 6% non-denaturing PAGE; DEC defined as resistant to excess competitor template; primer/template annealed 1:1.3 in 50 mM; settings: protein: recombinant; tags: N-terminal 6-His; copies: 1;1; label: 5'-32P primer; template 5' overhang 24 nt, other end blunt
[10] = target: T1, HIV-1 reverse transcriptase p66/p51, …; assay: EMSA; FTC-TP titrated (ligand Kd); Bmax 50.0%; DEC binding buffer not in the material; 6% non-denaturing PAGE; DEC defined as resistant to excess competitor template; primer/template annealed 1:1.3 in 50 mM; settings: protein: recombinant; tags: N-terminal 6-His; copies: 1;1; label: 5'-32P primer; template 5' overhang 24 nt, other end blunt
[11] = target: T1, HIV-1 reverse transcriptase p66/p51, …; assay: EMSA; EFV titrated (ligand Kd); Bmax 5.53%; DEC binding buffer not in the material; 6% non-denaturing PAGE; DEC defined as resistant to excess competitor template; primer/template annealed 1:1.3 in 50 mM; settings: protein: recombinant; tags: N-terminal 6-His; copies: 1;1; label: 5'-32P primer; template overhangs: 5' 8 nt, 3' 8 nt
[12] = target: T1, HIV-1 reverse transcriptase p66/p51, …; assay: EMSA; EFV titrated (ligand Kd); Bmax 14.9%; DEC binding buffer not in the material; 6% non-denaturing PAGE; DEC defined as resistant to excess competitor template; primer/template annealed 1:1.3 in 50 mM; settings: protein: recombinant; tags: N-terminal 6-His; copies: 1;1; label: 5'-32P primer; template overhangs: 5' 8 nt, 3' 8 nt
[13] = target: T1, HIV-1 reverse transcriptase p66/p51, …; assay: EMSA; dATP titrated (ligand Kd); Bmax 38.0%; DEC binding buffer not in the material; 6% non-denaturing PAGE; DEC defined as resistant to excess competitor template; primer/template annealed 1:1.3 in 50 mM; settings: protein: recombinant; tags: N-terminal 6-His; copies: 1;1; label: 5'-32P primer; template overhangs: 5' 8 nt, 3' 8 nt
[14] = target: T1, HIV-1 reverse transcriptase p66/p51, …; assay: EMSA; TFV-DP titrated (ligand Kd); Bmax 15.3%; DEC binding buffer not in the material; 6% non-denaturing PAGE; DEC defined as resistant to excess competitor template; primer/template annealed 1:1.3 in 50 mM; settings: protein: recombinant; tags: N-terminal 6-His; copies: 1;1; label: 5'-32P primer; template overhangs: 5' 8 nt, 3' 8 nt

B1: D26/D50, ddAMP-terminated (dsDNA)
DNA 1: CTGAGACAACATCTGCTGAGGTAGGA
DNA 2: TGTCGTGTGGTGTCGTGTGGTATGTCCTACCTCAGCAGATGTTGTCTCAG
modifications: 3'-terminal A of primer is ddAMP
apparent K (half saturation) [1]: 2420 ± 1100 nM | apparent K (half saturation) [2]: 8.1 ± 2.1 µM | apparent K (half saturation) [3]: 86.8 ± 0.2 µM

B2: D27/D50, FTC-MP-terminated (dsDNA)
DNA 1: CTGAGACAACATCTGCTGAGGTAGGAC
DNA 2: TGTCGTGTGGTGTCGTGTGGTATGTCCTACCTCAGCAGATGTTGTCTCAG
modifications: 3'-terminal C of primer is emtricitabine-MP
apparent K (half saturation) [4]: 1260 ± 240 nM

B3: D27/D50, ddCMP-terminated (dsDNA)
DNA 1: CTGAGACAACATCTGCTGAGGTAGGAC
DNA 2: TGTCGTGTGGTGTCGTGTGGTATGTCCTACCTCAGCAGATGTTGTCTCAG
modifications: 3'-terminal C of primer is ddCMP
apparent K (half saturation) [5]: 6.5 ± 2.6 µM | apparent K (half saturation) [6]: 110 ± 60 nM | apparent K (half saturation) [7]: 140 ± 19 µM

B4: D26/D50, TFV-terminated (dsDNA)
DNA 1: CTGAGACAACATCTGCTGAGGTAGGA
DNA 2: TGTCGTGTGGTGTCGTGTGGTATGTCCTACCTCAGCAGATGTTGTCTCAG
modifications: 3'-terminal A of primer is tenofovir (chain terminator)
apparent K (half saturation) [8]: 1220 ± 280 nM | apparent K (half saturation) [9]: 179 ± 33 µM | apparent K (half saturation) [10]: 46.5 ± 7.8 µM

B5: D20/D36C, FTC-MP-terminated (dsDNA)
DNA 1: GTCCCTGTTCGGGCGCCACC
DNA 2: TCTCTAATGGTGGCGCCCGAACAGGGACCTGAAAGC
modifications: 3'-terminal C of primer is emtricitabine-MP
apparent K (half saturation) [11]: 1540 ± 330 nM

B6: D20/D36C, ddCMP-terminated (dsDNA)
DNA 1: GTCCCTGTTCGGGCGCCACC
DNA 2: TCTCTAATGGTGGCGCCCGAACAGGGACCTGAAAGC
modifications: 3'-terminal C of primer is ddCMP
apparent K (half saturation) [12]: 1030 ± 250 nM | apparent K (half saturation) [13]: 16.9 ± 8.5 µM | apparent K (half saturation) [14]: 445 ± 114 µM
